From publication PMC5003418

Assays:
[1] = molecular target: HIV-1 integrase K264A/K266A, recombinant, 6xHis-tagged (HIV-1); experiment: SEC
[2] = molecular target: HIV-1 integrase R269A/K273A, recombinant, 6xHis-tagged (HIV-1); experiment: SEC

HIV-1 integrase K264A/K266A, recombinant, 6xHis-tagged (enzyme)
stoichiometry N [1]: 4

HIV-1 integrase R269A/K273A, recombinant, 6xHis-tagged (enzyme)
stoichiometry N [2]: 4
